Measurements from US20040138118.
Positions count from the first letter of the chain named.

T1: 20-mer D to A mutant peptide (SEQ ID NO:20)
T1 chain: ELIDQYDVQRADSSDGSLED

T2: 20-mer R to Q mutant peptide (SEQ ID NO:19)
T2 chain: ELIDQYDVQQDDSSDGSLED

T3: 30-mer R to Q mutant peptide (SEQ ID NO:16)
T3 chain: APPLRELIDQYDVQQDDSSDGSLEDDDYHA

T4: 30-mer wild type myostatin pro peptide peptide (SEQ ID NO:15)
T4 chain: T3 chain with Q15R

T5: 20-mer wild type myostatin pro peptide peptide (SEQ ID NO:18)
T5 chain: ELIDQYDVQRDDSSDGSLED

T6: 40-mer wild type myostatin pro peptide peptide (SEQ ID NO:12)
T6 chain: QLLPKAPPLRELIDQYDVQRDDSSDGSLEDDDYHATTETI

T7: 40-mer R to Q mutant peptide (SEQ ID NO:13)
T7 chain: T6 chain with R20Q

T8: 30-mer D to A mutant peptide (SEQ ID NO:17)
T8 chain: T3 chain with Q15R, D16A

T9: 40-mer D to A mutant peptide (SEQ ID NO:14)
T9 chain: T6 chain with D21A

B1: bone morphogenic protein-1 (BMP-1) (protein)
chain: AATSRPERVWPDGVIPFVIGGNFTGSQRAVFRQAMRHWEKHTCVTFLERTDEDSYIVFTYRPCGCCSYVGRRGGGPQAISIGKNCDKFGIVVHELGHVVGFWHEHTRPDRDRHVSIVRENIQPGQEYNFLKMEPQEVESLGETYDFDSIMHYARNTFSRGIFLDTIVPKYEVNGVKPPIGQRTRLSKGDIAQARKLYKCPACGETLQDSTGNFSSPEYPNGYSAHMHCVWRISVTPGEKIILNFTSLDLYRSRLCWYDYVEVRDGFWRKAPLRGRFCGSKLPEPIVSTDSRLWVEFRSSSNWVGKGFFAVYEAICGGDVKKDYGHIQSPNYPDDYRPSKVCIWRIQVSEGFHVGLTFQSFEIERHDSCAYDYLEVRDGHSESSTLIGRYCGYEKPDDIKSTSSRLWLKFVSDGSINKAGFAVNFFKEVDECSRPNRGGCEQRCLNTLGSYKCSCDPGYELAPDKRRCEAACGGFLTKLNGSITSPGWPKEYPPNKNCIWQLVAPTQYRISLQFDFFETEGNDVCKYDFVEVRSGLTADSKLHGKFCGSEKPEVITSQYNNMRVEFKSDNTVSKKGFKAHFFSEKRPALQPPRGRPHQLKFRVQKRNRTPQ
B2: mammalian Tolloid-like-1 (mTLL-1) (protein)
chain: AATSRTERIWPGGVIPYVIGGNFTGSQRAMFKQAMRHWEKHTCVTFIERSDEESYIVFTYRPCGCCSYVGRRGNGPQAISIGKNCDKFGIVVHELGHVIGFWHEHTRPDRDNHVTIIRENIQPGQEYNFLKMEPGEVNSLGERYDFDSIMHYARNTFSRGMFLDTILPSRDDNGIRPAIGQRTRLSKGDIAQARKLYRCPACGETLQESNGNLSSPGFPNGYPSYTHCIWRVSVTPGEKIVLNFTTMDLYKSSLCWYDYIEVRDGYWRKSPLLGRFCGDKLPEVLTSTDSRMWIEFRSSSNWVGKGFAAVYEAICGGEIRKNEGQIQSPNYPDDYRPMKECVWKITVSESYHVGLTFQSFEIERHDNCAYDYLEVRDGTSENSPLIGRFCGYDKPEDIRSTSNTLWMKFVSDGTVNKAGFAANFFKEEDECAKPDRGGCEQRCLNTLGSYQCACEPGYELGPDRRSCEAACGGLLTKLNGTITTPGWPKEYPPNKNCVWQVVAPTQYRISVKFEFFELEGNEVCKYDYVEIWSGLSSESKLHGKFCGAEVPEVITSQFNNMRIEFKSDNTVSKKGFKAHFFSDKDECSKDNGGCQHECVNTMGSYMCQCRNGFVLHDNKHDCKEAECEQKIHSPSGLITSPNWPDKYPSRKECTWEISATPGHRIKLAFSEFEIEQHQECAYDHLEVFDGETEKSPILGRLCGNKIPDPLVATGNKMFVRFVSDASVQRKGFQATHSTECGGRLKAESKPRDLYSHAQFGDNNYPGQVDCEWLLVSERGSRLELSFQTFEVEEEADCGYDYVELFDGLDSTAVGLGRFCGSGPPEEIYSIGDSVLIHFHTDDTINKKGFHIRYKSIRYPDTTHTKK
B3: mammalian Tolloid-like-2 (mTLL-2) (protein)
chain: ATTSRTERIWPGGVIPYVIGGNFTGSQRAIFKQAMRHWEKHTCVTFIERTDEESFIVFSYRTCGCCSYVGRRGGGPQAISIGKNCDKFGIVAHELGHVVGFWHEHTRPDRDQHVTIIRENIQPGQEYNFLKMEAGEVSSLGETYDFDSIMHYARNTFSRGVFLDTILPRQDDNGVRPTIGQRVRLSQGDIAQARKLYKCPACGETLQDTTGNFSAPGFPNGYPSYSHCVWRISVTPGEKIVLNFTSMDLFKSRLCWYDYVEVRDGYWRKAPLLGRFCGDKIPEPLVSTDSRLWVEFRSSSNILGKGFFAAYEATCGGDMNKDAGQIQSPNYPDDYRPSKECVWRITVSEGFHVGLTFQAFEIERHDSCAYDYLEVRDGPTEESALIGHFCGYEKPEDVKSSSNRLWMKFVSDGSINKAGFAANFFKEVDECSWPDHGGCEHRCVNTLGSYKCACDPGYELAADKKMCEVACGGFITKLNGTITSPGWPKEYPTNKNCVWQVVAPAQYRISLQFEVFELEGNDVCKYDFVEVRSGLSPDAKLHGRFCGSETPEVITSQSNNMRVEFKSDNTVSKRGFRAHFFSDKDECAKDNGGCQHECVNTFGSYLCRCRNGYWLHENGHDCKEAGCAHKISSVEGTLASPNWPDKYPSRRECTWNISSTAGHRVKLTFNEFEIEQHQECAYDHLEMYDGPDSLAPILGRFCGSKKPDPTVASGSSMFLRFYSDASVQRKGFQAVHSTECGGRLKAEVQTKELYSHAQFGDNNYPSEARCDWVIVAEDGYGVELTFRTFEVEEEADCGYDYMEAYDGYDSSAPRLGRFCGSGPLEEIYSAGDSLMIRFRTDDTINKKGFHARYTSTKFQDALHMKK

Assays:
[1] = target: D76A mutant myostatin pro peptide
[2] = target: myostatin pro peptide (wild type)
[3] = target: T1, 20-mer D to A mutant peptide (SEQ ID …)
[4] = target: T2, 20-mer R to Q mutant peptide (SEQ ID …)
[5] = target: T3, 30-mer R to Q mutant peptide (SEQ ID …)
[6] = target: T4, 30-mer wild type myostatin pro peptide …
[7] = target: T5, 20-mer wild type myostatin pro peptide …
[8] = target: T6, 40-mer wild type myostatin pro peptide …
[9] = target: T7, 40-mer R to Q mutant peptide (SEQ ID …)
[10] = target: T8, 30-mer D to A mutant peptide (SEQ ID …)
[11] = target: T9, 40-mer D to A mutant peptide (SEQ ID …)

D76A mutant myostatin pro peptide, sequence (chain, as listed by the source D76A): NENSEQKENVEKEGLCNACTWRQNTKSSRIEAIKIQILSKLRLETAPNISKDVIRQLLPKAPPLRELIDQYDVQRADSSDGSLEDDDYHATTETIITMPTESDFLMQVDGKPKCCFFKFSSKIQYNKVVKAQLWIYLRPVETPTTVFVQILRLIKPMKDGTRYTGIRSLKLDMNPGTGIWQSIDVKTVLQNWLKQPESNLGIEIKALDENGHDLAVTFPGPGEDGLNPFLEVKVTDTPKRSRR

Protein	proteolytic cleavage of the mutant pro peptide in the latent complex, western blot (FIGS. 3D and E) [1]	partial proteolytic cleavage of the pro peptide in the latent complex, western blot (FIG. 3E) [2]	proteolytic cleavage of free pro peptide [2]	proteolytic cleavage of the pro peptide in the latent complex, western blot (FIG. 3D) [2]	proteolytic cleavage, SDS-PAGE and western blot with anti-pro peptide antiserum [2]	peptide cleavage, HPLC and mass spectrometry [3]	peptide cleavage, HPLC and mass spectrometry [4]	peptide cleavage, HPLC and mass spectrometry [5]	peptide cleavage, HPLC and mass spectrometry [6]	peptide cleavage, HPLC and mass spectrometry [7]	peptide cleavage, HPLC and mass spectrometry [8]	peptide cleavage, HPLC and mass spectrometry [9]	peptide cleavage, HPLC and mass spectrometry [10]	peptide cleavage, HPLC and mass spectrometry [11]
B1	completely resistant to proteolysis by each of the four proteinases	BMP-1, mTLL-1, and mTLL-2, were approximately equally effective in cleaving the pro peptide	All four of these proteinases also cleaved pro peptide that had been purified away from the C-terminal dimer	incubation of the purified latent complex with purified BMP-1 resulted in complete cleavage of the pro peptide to generate a single product	A discrete proteolytic cleavage product of the pro peptide was detected in each reaction containing one of the four proteases									
B2	completely resistant to proteolysis by each of the four proteinases	BMP-1, mTLL-1, and mTLL-2, were approximately equally effective in cleaving the pro peptide	All four of these proteinases also cleaved pro peptide that had been purified away from the C-terminal dimer		A discrete proteolytic cleavage product of the pro peptide was detected in each reaction containing one of the four proteases									
B3	completely resistant to proteolysis by each of the four proteinases	BMP-1, mTLL-1, and mTLL-2, were approximately equally effective in cleaving the pro peptide	All four of these proteinases also cleaved pro peptide that had been purified away from the C-terminal dimer		A discrete proteolytic cleavage product of the pro peptide was detected in each reaction containing one of the four proteases	the peptides containing the D→A mutation at the P1′ position were not cleaved	The 40-mer, 30-mer, and 20-mer wild type and R→Q mutant peptides were cleaved by conditioned media containing TLL-2	The 40-mer, 30-mer, and 20-mer wild type and R→Q mutant peptides were cleaved by conditioned media containing TLL-2	The 40-mer, 30-mer, and 20-mer wild type and R→Q mutant peptides were cleaved by conditioned media containing TLL-2	The 40-mer, 30-mer, and 20-mer wild type and R→Q mutant peptides were cleaved by conditioned media containing TLL-2	The 40-mer, 30-mer, and 20-mer wild type and R→Q mutant peptides were cleaved by conditioned media containing TLL-2	The 40-mer, 30-mer, and 20-mer wild type and R→Q mutant peptides were cleaved by conditioned media containing TLL-2	the peptides containing the D→A mutation at the P1′ position were not cleaved	the peptides containing the D→A mutation at the P1′ position were not cleaved
